Reference: patent publication US20240076370A1 (Memorial Sloan Kettering, published 2024)
Positions count from the first letter of the chain named.

B1: ET150-162 scFv (scFv)
scFv: QSALTQPPSASGSPGQSVTISCTGTSRDAGGYNYFSWYQQHPGKAPKLLIYEVTKRPSGVPDRFSGSKSGKTASLTVSGLQADDEAVYYCSSYGGSNNFRVFGGGTKLTVLGSRGGGGSGGGGSGGGGSLEMAEVQLVESGGGVVRPGGSLRLSCAASGFTFGDYGMSWVRQAPGKGLEWVSGINWNGGSTGYADSVKGRFTISRDNAKNSLYLQMNSLRAEDTAVYYCARSKQDYWGQGTLVTVSS
notes: also called ET150-12 scFv
B2: ET150-163 scFv (scFv)
scFv: QSVVTQPPSVSGAPGQRVTISCTGSSSNIGAGYDVHWYQQLPGTAPKLLIYGNSNRPSGVPDRFSGSKSGTSASLAITGLQAEDEADYYCQSYDSSLSGSYVFGTGTKLTVLGSRGGGGSGGGGSGGGGSLEMAEVQLVETGGNLVQPGASLRLSCAASGFSFSGTAMHWVRQAPGKGLEWVSTISSTGRSTYYRDSVKGRFTISRDNSKNTLYLQMNSLRGEDTAVYYCARVSFDYWGQGTLVTVSS
notes: also called ET150-13 scFv
B3: ET150-160 scFv (scFv)
scFv: QSALTQPASVSGSPGQSITISCTGTSSDVGGYNYVSWYQQHPGKAPKLMIYDVSKRPSGVSNRFSGSKSGNTASLTISGLQAEDEADYYCSSYTRSSTEVFGGGTKLTVLGSRGGGGSGGGGSGGGGSLEMAEVQLVQSGAEVKKPGASVKVSCKASGYTFTSYYMHWVRQAPGQGLEWMGIINPSGGSTSYAQKFQGRVTMTRDTSTSTVYMELSSLRSEDTAVYYCARGGSKKWSGEKWRRENFDYWGQGTLVTVSS
notes: also called ET150-10 scFv
B4: ET150-153 scFv (scFv)
scFv: QSVLTQPPSVSAAPGQKVTIPCSGSRSNVGNYYVSWYQQLPGTAPKLLIYDNNKRPSGIPDRFSGSKSGTSATLGITGLQTGDEADYFCGTWDGSLSAHVFGTGTKVTVLGSRGGGGSGGGGSGGGGSLEMAQVQLVQSGSELKKPGASVRVSCTASGYTFTSYYMHWVRQAPGQGLEWMGVINPNAGSTRYAQKFQGRVTMSTDTSTSTAYMDLSSLRSEDTAVYYCARGMYRSLLFYDPWGQGTLVTVSS
notes: also called ET150-3 scFv
B5: ET150-026 scFv (scFv)
scFv: AELSYELTQPPSASGTPGQRVSISCSGSSSNIGSNTVNWYQQFPGTAPKLLIHSNNQRPSGVPDRFSGSKSGTSASLAISGPQSEDEADYYCAAWDDSVNGYVFGTGTKVTVLGSRGGGGSGGGGSGGGGSLEMAQLQLQESGGGSVQPGGSLRLSCAASGFTFSNYAMSWVRQAPGKGLEWVSAITNSGRSTYYADSVKGRFTISRDNSKNTLSLQMSSLRAEDTAVYYCARVTHRRYGSTFDSRGQGTLVTVSS
notes: also called ET150-176 scFv
B6: ET150-156 scFv (scFv)
scFv: QSALTQPASVSGSPGQSITISCTGTSRDVGGYNYVSWYQQYPGKAPKLMIYEVSKRPSGVSNRFSGSKSGNTASLTISGLQAEDEADYYCSSYTSSSTLDFGTGTKVTVLGSRGGGGSGGGGSGGGGSLEMAQVQLVQSGAEVKQPGASVKVSCQASGYTFTTYYMHWVRQAPGQGLEWMGIINPNGGGTFYAQKFQDRVTMTRDTSTGTVYMELSSLRSDDTAVYYCARGHKVYKSHPTGGYDRWGQGTLVTVSS
notes: also called ET150-6 scFv
B7: ET150-173 scFv (scFv)
scFv: QSALTQPASVSGSPGQSITISCTGTSSDVGGYNYVSWYQQSPGKAPRLMIYGVSKRPSGVPDRFSGSKSGNTASLTVSGLQAEDEADYYCSSYAGVNNLMFGGGTKLTVLGSRGGGGSGGGGSGGGGSLEMAQVQLVQSGAEVKKPGASVKVSCKASGYTFTSYYMHWVRQAPGQGLEWMGIINPSGGSTSYAQKFQGRVTMTRDTSTSTVYMELSSLRSEDTAVYYCARDVISGFDSWGQGTLVTVSS
notes: also called ET150-23 scFv
B8: ET150-031 scFv (scFv)
scFv: AELQSVVTQPPSVSAAPGQRVTISCSGGSSNIGNNYVSWFQQLPRTAPKLLIYDNNKRPSGIPDRFSGSKSGTSAALDITVLQTGDEADYYCGTWDSSLRNWVFGGGTKLTVLGSRGGGGSGGGGSGGGGSLEMAQMQLVQSGAEVKKPGASVKVSCKASGYTFTSYYMHWVRQAPGQGLEWMGIINPSGGSTSYAQKFQGRVTMTRDTSTSTVYMELSSLRSEDTAVYYCARGQKYHSQYSRGGTGGGMTQDMWGQGTLVTVSS
notes: also called ET150-181 scFv
B9: ET150-030 scFv (scFv)
scFv: AELQSVLTQPPSVSGAPGQRVTISCTGSSSNIGAGYDVHWYQQLPGRAPKLLIYGNSNRPSGVPDRFSGSKSGTSASLAITGLQAEDEADYYCQSYDSSLRGYVFGTGTKVTVLGSRGGGGSGGGGSGGGGSLEMAQVQLVQSGGGVVQPGRSLRLSCAASGFSFSGTAMHWVRQAPGKGLEWVSTISSTGRSTYYRDSVKGRFTISRDNSKNTLYLQMNSLRGEDTAVYYCARPVSSMTLSIQSDGWGQGTLVTVSS
notes: also called ET150-180 scFv
B10: ET150-033 scFv (scFv)
scFv: AELQAVLTQPPSASGTPGQRVTISCSGSSSNIGSNYVYWYQQLPGTAPKLLIYRNNQRPSGVPDRFSGSKSGTSASLAISGLRSEDEADYYCAAWDDSLSGRVFGTGTKVTVLGSRGGGGSGGGGSGGGGSLEMAQLQLVQSGAEVKKPGSSVKVSCKASGYTFNTYYLHWVRQAPGQGLEWMGRINPNNGGTNYAQKFQGRVTMTRDTSINTAYMELSRLRSDDTAVYYCARSYDYWGQGTLVTVSS
notes: also called ET150-183 scFv
B11: ET150-166 scFv (scFv)
scFv: NFMLTQPHSVSESPGKTVSISCTRTSGAIAGAYVQWFQQRPGSAPTTVIYDDNKRPSGVPDRFSGSIDKSSNSASLTISGLKTEDEADYYCQSYDYDSSNVLFGGGTKLTVLGSRGGGGSGGGGSGGGGSLEMAEVQLVESGGGLVQPGGSLRLSCAASGFTFSNYAMSWVRQAPGKGLEWVSAISGSGNTYYADSVKGRFTISRDNSKNTLYLQMNSLRAEDTAVYYCARGSVRYTDIWGQGTLVTVSS
notes: also called ET150-16 scFv
B12: ET150-032 scFv (scFv)
scFv: AELQSVLTQPPSASGSPGQSLTISCTGTSSDVGGYNHVSWYQQYPGKAPKLMIYEVTKRPSGVPDRFSGSKSGNTASLTVSGLQAEDEADYYCSSYAGSAHWVFGGGTKLTVLGSRGGGGSGGGGSGGGGSLEMAEVQLVQSGAEVKKPGASVKVSCKASGYTFSRYYIHWVRQAPGQGLEWMGWMNPNSGNTGYAQKFQGRVTMTRNTSISTAYMELSSLRSEDTAVYYCARGRYHVIDYWGQGTLVTVSS
notes: also called ET150-182 scFv
B13: ET150-161 scFv (scFv)
scFv: SYVLTQPPSASGTPGQRVTISCSGSSSNIGSNTVNWYQQLPGTAPKLLIYRNNQRPSGVPDRFSGSKSGTSASLAISGLRSEDEADYYCAAWDDSLSGLFGTGTKVTVLGSRGGGGSGGGGSGGGGSLEMAQMQLVQSGAEVKKPGASVKVSCKASEYTFTRHILHWVRQAPGQSLEWMGWINPGNGNTKYSQKFQVRVTFTRDTSASTVYMELSSLRSEDTAVYYCARLPDQWGQGTLVTVSS
notes: also called ET150-11 scFv
B14: ET150-171 scFv (scFv)
scFv: QSALTQPASVSGSPGQSITISCTGTSSDVGGYNFVSWYQQHPGKAPKVMIYDVSKRPSGISNRFSGSKSGNTASLTISGLQVEDEAEYYCSSYTSTRTVIFAGGTKVTVLGSRGGGGSGGGGSGGGGSLEMAQVQLVQSGAEVKKPGASVKVSCKASGYTFTSYYMHWVRQAPGQGLEWMGIINPSGGSTRYAQKFQGRVTMTRDTSTSTVYMELSSLRSEDTAVYYCARGSSRWGGWTGDYWGQGTLVTVSS
notes: also called ET150-21 scFv
B15: ET150-028 scFv (scFv)
scFv: AELQPVLTQPPSASGTPGQRVTISCSGSSSNIGGNTVSWYQQVPGTAPRLLIFRNNQRPPGVPDRFSGSKSGTSASLAISGLRSEDEADYYCAAWDASRQGVFGGGTKLTVLGSRGGGGSGGGGSGGGGSLEMAQVQLVQSGAEVKKPGSSVKVSCKASGGTFRSYAITWVRQAPGQGLEWMGRIIPMLDITNYAQKFQGRVTITADKSTSTAYMELSSLRSEDTAVYYCARTYSRSPFHMEDFWGQGTLVTVSS
notes: also called ET150-178 scFv
B16: ET150-165 scFv (scFv)
scFv: QSALTQPPSASGSPGQSVTISCTGTSSDIGGYNYVSWYQQHPGKAPKLMIYEVNKRPSGVPDRFSGSKSGNTASLTVSGLQAEDEADYYCASFAGRKTLVFGGGTKLTVLGSRGGGGSGGGGSGGGGSLEMAQVQLVQSGAEVKKPGASVKVSCRASGYTFTAYSLHWVRQAPGQGLEWMGWINPSSGGAVYAQKFQGRVTMTRDTSISTAYMELSGLRSDDTAVYYCARNVGGQADDWGQGTLVTVSS
notes: also called ET150-15 scFv
B17: ET150-167 scFv (scFv)
scFv: B16 scFv with S27T, Q40H, G43S, Q235H
notes: also called ET150-17 scFv
B18: ET150-164 scFv (scFv)
scFv: QSALTQPPSASGSPGQSVTISCTGTSSDVGGYNYVSWYQQHPGKAPKLMIYEVSKRPSGVPDRFSGSKSGNTASLTVSGLQAEDEADYYCSSYAGSNTLVFGGGTKLTVLGSRGGGGSGGGGSGGGGSLEMAQMQLVQSGAEVKKPGASVKVSCKASGYTFTSYYMHWVRQAPGQGLEWMGIINPSGGSTSYAQKFQGRVTMTRDTSTSTVYMELSSLRSEDTAVYYCARAGMGMDTWGQGTLVTVSS
notes: also called ET150-14 scFv
B19: ET150-172 scFv (scFv)
scFv: B18 scFv with T190S
notes: also called ET150-22 scFv
B20: ET150-154 scFv (scFv)
scFv: QAVLTQPPSASGTPGQRVTISCSGSSSNIGSNYVYWYQQLPGTAPKLLIYRNNQRPSGVPDRFSGSKSGTSASLAISGLRSEDEADYYCAAWDDSLSGYVFGTGTKVTVLGSRGGGGSGGGGSGGGGSLEMAQVQLVQSGAEVQRPGASVRVSCKAIAYTFTDYYIHWVRQAPGQGPEWMGWINPKSGRTQYAPKFQDRVTLARETPISTASMELRGLTSDDTAVYYCARVYGYSRWSGFDLWGQGTLVTVSS
notes: also called ET150-4 scFv
B21: ET150-169 scFv (scFv)
scFv: QSVVTQPPSVSAAPGQKVTISCSGSSSNIGNNYVSWYQQLPGTAPKLLIYDNNKRPSGIPDRFSGSKSGTSATLGITGLQTGDEADYYCGTWDSSLSGVVFGGGTKLTVLGSRGGGGSGGGGSGGGGSLEMAQVQLVQSGGEVKKPGASVKVSCKASGFTFNTYGISWVRQAPGQGLEWMGWISANNGHTKSAQRFQDRVAMATDTSTSTAYMELRSLKFDDTAVYYCARGGYHHQMQRYYKATSVYSDYWGQGTLVTVSS
notes: also called ET150-19 scFv

Each binder was assayed against T1, human G-protein coupled receptor family C group 5 member D (GPRC5D) (human, UniProt Q9NZD1 1-345) (assay: FACS, scFv phage clones on 3T3 cells overexpressing GPRC5D).
T1 construct: Overexpressed on 3T3 cells in the FACS assays; also called human GPRC5D; 3T3-GPRC5D
T1 sequence (Q9NZD1 whole entry): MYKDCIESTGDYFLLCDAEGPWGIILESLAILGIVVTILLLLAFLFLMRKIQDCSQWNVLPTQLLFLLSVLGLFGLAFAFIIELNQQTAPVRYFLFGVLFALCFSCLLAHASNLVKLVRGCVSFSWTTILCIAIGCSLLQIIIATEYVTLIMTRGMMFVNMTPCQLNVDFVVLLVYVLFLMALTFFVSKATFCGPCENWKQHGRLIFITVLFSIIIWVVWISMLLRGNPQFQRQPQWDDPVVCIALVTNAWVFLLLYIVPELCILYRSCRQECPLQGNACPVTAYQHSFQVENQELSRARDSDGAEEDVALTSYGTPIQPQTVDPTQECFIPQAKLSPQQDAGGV

| binding result | Binder |
| --- | --- |
| binds | B1 |
| binds | B2 |
| binds | B3 |
| binds | B4 |
| binds | B5 |
| binds | B6 |
| binds | B7 |
| binds | B8 |
| binds | B9 |
| binds | B10 |
| binds | B11 |
| binds | B12 |
| binds | B13 |
| binds | B14 |
| binds | B15 |
| binds | B16 |
| binds | B17 |
| binds | B18 |
| binds | B19 |
| binds | B20 |
| binds | B21 |
